From patent US20240132578A1

Columns and labels:
Assay in all cases: cell-based or functional assay
[1] = target: HIV-1 Env of isolate 93MW959 (subtype C) (HIV-1)
[2] = target: HIV-1 Env of isolate 97ZA012 (subtype C) (HIV-1)
[3] = target: HIV-1 Env of isolate 98IN022 (subtype C) (HIV-1)
[4] = target: HIV-1 Env of isolate MGRM-C-001 (subtype C) (HIV-1)
[5] = target: HIV-1 Env of isolate MGRM-C-002 (subtype C) (HIV-1)
[6] = target: HIV-1 Env of isolate MGRM-C-004 (subtype C) (HIV-1)
[7] = target: HIV-1 Env of isolate MGRM-C-005 (subtype C) (HIV-1)
[8] = target: HIV-1 Env of isolate MGRM-C-006 (subtype C) (HIV-1)
[9] = target: HIV-1 Env of isolate MGRM-C-007 (subtype C) (HIV-1)
[10] = target: HIV-1 Env of isolate MGRM-C-008 (subtype C) (HIV-1)
[11] = target: HIV-1 Env of isolate MGRM-C-009 (subtype C) (HIV-1)
[12] = target: HIV-1 Env of isolate MGRM-C-010 (subtype C) (HIV-1)
[13] = target: HIV-1 Env of isolate MGRM-C-012 (subtype C) (HIV-1)
[14] = target: HIV-1 Env of isolate MGRM-C-013 (subtype C) (HIV-1)
[15] = target: HIV-1 Env of isolate MGRM-C-014 (subtype C) (HIV-1)
[16] = target: HIV-1 Env of isolate MGRM-C-015 (subtype C) (HIV-1)
[17] = target: HIV-1 Env of isolate MGRM-C-017 (subtype C) (HIV-1)
[18] = target: HIV-1 Env of isolate MGRM-C-019 (subtype C) (HIV-1)
[19] = target: HIV-1 Env of isolate MGRM-C-020 (subtype C) (HIV-1)
[20] = target: HIV-1 Env of isolate MGRM-C-022 (subtype C) (HIV-1)
[21] = target: HIV-1 Env of isolate MGRM-C-023 (subtype C) (HIV-1)
[22] = target: HIV-1 Env of isolate MGRM-C-024 (subtype C) (HIV-1)
[23] = target: HIV-1 Env of isolate MGRM-C-025 (subtype C) (HIV-1)
[24] = target: HIV-1 Env of isolate MGRM-C-026 (subtype C) (HIV-1)
[25] = target: HIV-1 Env of isolate MGRM-C-027 (subtype C) (HIV-1)
[26] = target: HIV-1 Env of isolate MGRM-C-028 (subtype C) (HIV-1)
[27] = target: HIV-1 Env of isolate MGRM-G-001 (subtype G), on pseudovirus (HIV-1)
[28] = target: HIV-1 Env of isolate MGRM-G-004 (subtype G), on pseudovirus (HIV-1)
[29] = target: HIV-1 Env of isolate MGRM-G-006 (subtype G), on pseudovirus (HIV-1)
[30] = target: HIV-1 Env of isolate MGRM-G-009 (subtype G), on pseudovirus (HIV-1)
[31] = target: HIV-1 Env of isolate MGRM-G-011 (subtype G), on pseudovirus (HIV-1)
[32] = target: HIV-1 Env of isolate MGRM-G-013 (subtype G), on pseudovirus (HIV-1)
[33] = target: HIV-1 Env of isolate MGRM-G-014 (subtype G), on pseudovirus (HIV-1)
[34] = target: HIV-1 Env of isolate MGRM-G-015 (subtype G), on pseudovirus (HIV-1)
[35] = target: HIV-1 Env of isolate MGRM-G-016 (subtype G), on pseudovirus (HIV-1)
[36] = target: HIV-1 Env of isolate MGRM-G-017 (subtype G), on pseudovirus (HIV-1)
[37] = target: HIV-1 Env of isolate MGRM-G-019 (subtype G), on pseudovirus (HIV-1)
[38] = target: HIV-1 Env of isolate MGRM-G-024 (subtype G), on pseudovirus (HIV-1)
[39] = target: HIV-1 Env of isolate MGRM-G-025 (subtype G), on pseudovirus (HIV-1)
[40] = target: HIV-1 Env of isolate MGRM-G-027 (subtype G), on pseudovirus (HIV-1)
[41] = target: HIV-1 Env of isolate MGRM-G-028 (subtype G), on pseudovirus (HIV-1)
[42] = target: HIV-1 JR-CSF Env P470A (HIV-1 JR-CSF) (UniProt P20871)
[43] = target: HIV-1 JR-CSF Env R480A (HIV-1 JR-CSF) (UniProt P20871)
[44] = target: aMLV envelope, on pseudovirus (negative control)
[45] = target: HIV-1 Env of isolate 6535.3 (subtype B) (HIV-1)
[46] = target: HIV-1 Env of isolate 92BR020 (subtype B) (HIV-1)
[47] = target: HIV-1 Env of isolate 93TH305 (subtype B) (HIV-1)
[48] = target: HIV-1 Env of isolate APV 13 (subtype B) (HIV-1)
[49] = target: HIV-1 Env of isolate APV 6 (subtype B) (HIV-1)
[50] = target: HIV-1 Env of isolate APV_17 (subtype B) (HIV-1)
[51] = target: HIV-1 JR-CSF Env G471A (HIV-1 JR-CSF) (UniProt P20871)

B1: PGT-126 (antibody, V domains shown)
VH: QPQLQESGPGLVEASETLSLTCTVSGDSTAACDYFWGWVRQPPGKGLEWIGGLSHCAGYYNTGWTYHNPSLKSRLTISLDTPKNQVFLKLNSVTAADTAIYYCARFDGEVLVYHDWPKPAWVDLWGRGTLVTVSS
VL: QSALTQPPSASGSPGQSISISCTGTSNRFVSWYQQHPGKAPKLVIYGVNKRPSGVPDRFSGSKSGNTASLTVSGLQTDDEAVYYCSSLVGNWDVIFGGGTKLTVL
B1 gave an IC50 (µg/mL), pseudovirus neutralization [1] of 9.44 µg/mL, an IC50 (µg/mL), pseudovirus neutralization [2] of 0.042 µg/mL and an IC50 (µg/mL), pseudovirus neutralization [3] of 0.279 µg/mL. For the same binder, the IC50 (µg/mL), pseudovirus neutralization [4] was over 50 µg/mL, the IC50 (µg/mL), pseudovirus neutralization [5] was 0.011 µg/mL and the IC50 (µg/mL), pseudovirus neutralization [6] was 0.033 µg/mL. It also gave an IC50 (µg/mL), pseudovirus neutralization [7] of 0.298 µg/mL, an IC50 (µg/mL), pseudovirus neutralization [8] of 0.014 µg/mL and an IC50 (µg/mL), pseudovirus neutralization [9] of 25.3 µg/mL. It also gave an IC50 (µg/mL), pseudovirus neutralization [10] of 2.12 µg/mL, an IC50 (µg/mL), pseudovirus neutralization [11] of over 50 µg/mL and an IC50 (µg/mL), pseudovirus neutralization [12] of over 50 µg/mL. The IC50 (µg/mL), pseudovirus neutralization [13] was 0.111 µg/mL, the IC50 (µg/mL), pseudovirus neutralization [14] was over 50 µg/mL and the IC50 (µg/mL), pseudovirus neutralization [15] was over 50 µg/mL. The IC50 (µg/mL), pseudovirus neutralization [16] was 3.14 µg/mL, the IC50 (µg/mL), pseudovirus neutralization [17] was 0.17 µg/mL and the IC50 (µg/mL), pseudovirus neutralization [18] was 0.005 µg/mL. The IC50 (µg/mL), pseudovirus neutralization [19] was over 50 µg/mL, the IC50 (µg/mL), pseudovirus neutralization [20] was 0.96 µg/mL and the IC50 (µg/mL), pseudovirus neutralization [21] was 0.065 µg/mL. The IC50 (µg/mL), pseudovirus neutralization [22] was over 50 µg/mL, the IC50 (µg/mL), pseudovirus neutralization [23] was 0.786 µg/mL and the IC50 (µg/mL), pseudovirus neutralization [24] was 0.007 µg/mL. It also gave an IC50 (µg/mL), pseudovirus neutralization [25] of 15.6 µg/mL, an IC50 (µg/mL), pseudovirus neutralization [26] of 0.196 µg/mL and an IC50 (µg/mL), neutralization of pseudovirus [27] of 0.038 µg/mL. The IC50 (µg/mL), neutralization of pseudovirus [28] was over 50 µg/mL, the IC50 (µg/mL), neutralization of pseudovirus [29] was over 50 µg/mL and the IC50 (µg/mL), neutralization of pseudovirus [30] was over 50 µg/mL. The IC50 (µg/mL), neutralization of pseudovirus [31] was 7.32 µg/mL, the IC50 (µg/mL), neutralization of pseudovirus [32] was 48.8 µg/mL and the IC50 (µg/mL), neutralization of pseudovirus [33] was 0.009 µg/mL. For the same binder, the IC50 (µg/mL), neutralization of pseudovirus [34] was over 50 µg/mL, the IC50 (µg/mL), neutralization of pseudovirus [35] was over 50 µg/mL and the IC50 (µg/mL), neutralization of pseudovirus [36] was over 50 µg/mL. For the same binder, the IC50 (µg/mL), neutralization of pseudovirus [37] was 0.018 µg/mL, the IC50 (µg/mL), neutralization of pseudovirus [38] was over 50 µg/mL and the IC50 (µg/mL), neutralization of pseudovirus [39] was 17.1 µg/mL. It also gave an IC50 (µg/mL), neutralization of pseudovirus [40] of 0.875 µg/mL, an IC50 (µg/mL), neutralization of pseudovirus [41] of 0.012 µg/mL and a Fold IC50 increase relative to wild-type [42] of 2.7 fold. It also gave a Fold IC50 increase relative to wild-type [43] of 1.9 fold and an IC50 (µg/mL), neutralization of pseudovirus [44] of over 50 µg/mL.

B2: PGT-135 (antibody, V domains shown)
VH: QLQMQESGPGLVKPSETLSLSCTVSGDSIRGGEWGDKDYHWGWVRHSAGKGLEWIGSIHWRGTTHYKESLRRRVSMSIDTSRNWFSLRLASVTAADTAVYFCARHRHHDVFMLVPIAGWFDVWGPGVQVTVSS
VL: EIVMTQSPDTLSVSPGETVTLSCRASQNINKNLAWYQYKPGQSPRLVIFETYSKIAAFPARFVASGSGTEFTLTINNMQSEDVAVYYCQQYEEWPRTFGQGTKVDIK
Work on B2 yielded an IC50 (µg/mL), pseudovirus neutralization [45] of over 50 µg/mL, an IC50 (µg/mL), pseudovirus neutralization [46] of 0.073 µg/mL and an IC50 (µg/mL), pseudovirus neutralization [47] of over 50 µg/mL. It also gave an IC50 (µg/mL), pseudovirus neutralization [48] of 0.716 µg/mL, an IC50 (µg/mL), pseudovirus neutralization [49] of over 50 µg/mL and an IC50 (µg/mL), pseudovirus neutralization [50] of over 50 µg/mL. For the same binder, the IC50 (µg/mL), neutralization of pseudovirus [27] was 0.393 µg/mL, the IC50 (µg/mL), neutralization of pseudovirus [28] was over 50 µg/mL and the IC50 (µg/mL), neutralization of pseudovirus [29] was over 50 µg/mL. The IC50 (µg/mL), neutralization of pseudovirus [30] was over 50 µg/mL, the IC50 (µg/mL), neutralization of pseudovirus [31] was over 50 µg/mL and the IC50 (µg/mL), neutralization of pseudovirus [32] was over 50 µg/mL. For the same binder, the IC50 (µg/mL), neutralization of pseudovirus [33] was over 50 µg/mL, the IC50 (µg/mL), neutralization of pseudovirus [34] was over 50 µg/mL and the IC50 (µg/mL), neutralization of pseudovirus [35] was over 50 µg/mL. For the same binder, the IC50 (µg/mL), neutralization of pseudovirus [36] was 0.137 µg/mL, the IC50 (µg/mL), neutralization of pseudovirus [37] was 0.145 µg/mL and the IC50 (µg/mL), neutralization of pseudovirus [38] was 0.062 µg/mL. The IC50 (µg/mL), neutralization of pseudovirus [39] was 0.592 µg/mL, the IC50 (µg/mL), neutralization of pseudovirus [40] was 0.062 µg/mL and the IC50 (µg/mL), neutralization of pseudovirus [41] was over 50 µg/mL. The Fold IC50 increase relative to wild-type [51] was 3 fold and the IC50 (µg/mL), neutralization of pseudovirus [44] was over 50 µg/mL.
